Reference: patent US20230406950A1 (LYVGEN BIOPHARMA, published 2023)
One block for each binder: values may come before it.

What was measured:
[1] = target: T1, human GITR expressed on cells (human, UniProt Q9Y5U5 26-241); assay: flow cytometry (FACS), MFI, CHO cells expressing human GITR
T1 construct: whole, on cells; also called TNFRSF18; CD357
T1 sequence (looked up): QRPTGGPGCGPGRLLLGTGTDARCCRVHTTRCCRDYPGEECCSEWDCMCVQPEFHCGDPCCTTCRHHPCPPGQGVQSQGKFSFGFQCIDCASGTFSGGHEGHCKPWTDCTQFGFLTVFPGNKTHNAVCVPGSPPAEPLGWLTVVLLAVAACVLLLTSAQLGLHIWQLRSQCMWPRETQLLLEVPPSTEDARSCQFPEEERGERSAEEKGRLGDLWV
Experimental: FACS analysis was performed to evaluate the binding properties of exemplary anti-GITR humanized antibodies. Briefly, CHO cells over-expressing human GITR were harvested using trypsin-EDTA partial digestion followed by centrifugation at 1000 g for 3 minutes. The cells were re-suspended in cold PBS-BSA (2%) at 2×10⁶/mL and aliquoted to 100 μL/tube. The anti-GITR humanized antibodies were diluted in PBS-BSA (final concentrations were 0.01, 0.1, 1 and 10 μg/mL) and 50 μL of each was added to the CHO-GITR cells. The cell solutions were mixed and incubated at 4° C. in the dark for 2 hours. The cells were then washed with PBS-BSA twice. Secondary antibody conjugates (goat F(ab′)2 anti-human IgG—Fc (PE), pre-adsorbed, Abcam #ab98596) at 1/500 dilution and 100 μL/well was added and the cells were mixed and incubated 4° C. in dark for 1 hour. The cells were then washed twice with PBS-BSA, followed by fixation in 2% PFA/PBS, and were then subjected to FACS analysis.
[0270] (b) Agonistic Activity for GITR

[2] = target: T2, human CD137 expressed on cells (human, UniProt Q07011 24-255); assay: FACS on CHO cells expressing human CD137 (MFI)
T2 construct: whole, on cells; also called 4-1BB; TNFRSF9
T2 sequence (Q07011 24-255): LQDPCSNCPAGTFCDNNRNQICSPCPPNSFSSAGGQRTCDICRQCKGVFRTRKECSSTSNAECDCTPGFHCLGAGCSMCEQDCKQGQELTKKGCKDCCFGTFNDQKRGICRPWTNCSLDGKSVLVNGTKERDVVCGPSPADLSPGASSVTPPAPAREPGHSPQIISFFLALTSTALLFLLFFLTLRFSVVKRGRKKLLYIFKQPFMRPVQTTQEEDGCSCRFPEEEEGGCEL
Experimental: (§1) Anti-GITR/CD137 bi-specific antibodies were analyzed by FACS for their binding properties to human GITR and/or human CD137 expressed on CHO cells. Briefly, cultured cells were harvested, counted and cell viability was evaluated using the Trypan Blue exclusion method. Viable cells were then adjusted to 2×10⁶ cells per mL in PBS containing 2% BSA. 100 μL of this cell suspension were further aliquoted per well into a V-bottom 96-well plate. […] After incubation for 2 hours at 4° C., cells were centrifuged (3 min, 1000× g), washed with 250 μL/well BSA-containing FACS Stain Buffer, resuspended and incubated for an additional 1 hour at 4° C. with 100 μL/well fluorochrome-conjugated anti-IgG antibody for detection of the bisepecific antibody. Cells were then washed with 250 μL/well BSA-containing FACS Stain Buffer, resuspended in 100 μL/well FACS Stain Buffer, acquired and analyzed using a FACS machine. Binding of the bispecific antibodies to human GITR or human CD137 expressing CHO cells were evaluated and the mean fluorescence intensity is plotted in histograms or dot plots.

[3] = target: T2, human CD137 expressed on cells; assay: FACS on CHO cells expressing human CD137 (MFI); remark: listed apart in the source
Experimental: as §1

[4] = target: T2, human CD137 expressed on cells; assay: FACS on CHO cells expressing human CD137 (MFI); remark: listed apart in the source
Experimental: as §1, with “Anti-CD40/CD137” for “Anti-GITR/CD137”, “CD40” for “GITR”, “1000×g),” for “1000× g),”

[5] = target: T2, human CD137 expressed on cells; assay: FACS on CHO cells expressing human CD137 (MFI); remark: listed apart in the source
Experimental: as §1, with “Anti-CD40/CD137” for “Anti-GITR/CD137”, “CD40” for “GITR”, “1000×g),” for “1000× g),”

[6] = target: T2, human CD137 expressed on cells; assay: FACS on CHO cells expressing human CD137 (MFI); remark: listed apart in the source
Experimental: as §1, with “Anti-OX40/CD137” for “Anti-GITR/CD137”, “OX40” for “GITR”, “1000×g),” for “1000× g),”

[7] = target: T2, human CD137 expressed on cells; assay: FACS on CHO cells expressing human CD137 (MFI); remark: listed apart in the source
Experimental: as §1, with “Anti-OX40/CD137” for “Anti-GITR/CD137”, “OX40” for “GITR”, “1000×g),” for “1000× g),”

[8] = target: T3, human PD-1 expressed on cells (human, UniProt Q15116 25-288); assay: flow cytometry (FACS), MFI, CHO cells expressing human PD-1
T3 construct: whole, on cells; also called human PD-1 over-expressed on the CHO cells; Jurkat/NFkB-Luci/PD-1 cells
T3 sequence (Q15116 25-288): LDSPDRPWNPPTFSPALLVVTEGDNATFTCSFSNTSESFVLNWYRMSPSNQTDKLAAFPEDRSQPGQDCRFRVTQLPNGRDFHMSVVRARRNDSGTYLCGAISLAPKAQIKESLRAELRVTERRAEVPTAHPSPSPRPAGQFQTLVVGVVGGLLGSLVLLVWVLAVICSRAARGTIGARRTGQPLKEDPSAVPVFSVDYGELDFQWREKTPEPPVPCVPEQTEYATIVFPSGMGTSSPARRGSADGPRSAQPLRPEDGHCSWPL
How it was run: (§2)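 Viable CHO cells, 2×10⁶ cells/mL in PBS with 2% BSA, incubated with bispecific antibodies for 2 h at 4° C. Bound antibody detected with fluorochrome-conjugated anti-IgG, 1 h at 4° C. Read-out is mean fluorescence intensity by flow cytometry.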

[9] = target: T2, human CD137 expressed on cells; assay: flow cytometry (FACS), MFI, CHO cells expressing human CD137
How it was run: as §2

[10] = target: T4, human PD-L1 expressed on cells (human, UniProt Q9NZQ7 19-290); assay: flow cytometry (FACS), MFI, CHO cells expressing human PD-L1
T4 construct: whole, on cells; also called human PD-L1 expressed on CHO cells; Raji-PD-L1 cells
T4 sequence (Q9NZQ7 19-290): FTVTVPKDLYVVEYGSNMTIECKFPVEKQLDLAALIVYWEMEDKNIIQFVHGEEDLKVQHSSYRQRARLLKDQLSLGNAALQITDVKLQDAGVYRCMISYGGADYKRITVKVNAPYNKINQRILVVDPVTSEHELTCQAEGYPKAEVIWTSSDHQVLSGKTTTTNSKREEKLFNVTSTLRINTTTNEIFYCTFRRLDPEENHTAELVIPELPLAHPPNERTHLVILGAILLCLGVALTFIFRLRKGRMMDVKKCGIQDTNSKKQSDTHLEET
Experimental: as §1, with “Exemplary anti-PD-1/CD137” for “Anti-GITR/CD137”, “PD-1” for “GITR”
(§3) Exemplary anti-PD-L1/CD137 bi-specific antibodies were analyzed by FACS for their binding properties to human PD-L1 or human CD137 expressed on CHO cells, following the procedures disclosed in Examples 1 above.

[11] = target: T2, human CD137 expressed on cells; assay: flow cytometry (FACS), MFI, CHO cells expressing human CD137; remark: listed apart in the source
Experimental: as §1, with “Exemplary anti-PD-1/CD137” for “Anti-GITR/CD137”, “PD-1” for “GITR”
as §3

[12] = target: T5, human CD40 expressed on CHO cells (human, UniProt P25942 21-277); assay: FACS on CHO cells expressing human CD40 (MFI)
T5 construct: whole, on cells
T5 sequence (P25942 21-277): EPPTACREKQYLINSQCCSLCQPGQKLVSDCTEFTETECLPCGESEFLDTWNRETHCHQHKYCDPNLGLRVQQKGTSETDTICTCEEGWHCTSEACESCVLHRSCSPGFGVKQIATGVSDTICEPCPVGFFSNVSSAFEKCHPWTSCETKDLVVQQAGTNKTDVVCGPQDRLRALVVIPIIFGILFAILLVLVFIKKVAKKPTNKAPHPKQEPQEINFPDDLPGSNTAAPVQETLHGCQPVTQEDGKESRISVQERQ
Experimental: as §1, with “Anti-CD40/CD137” for “Anti-GITR/CD137”, “CD40” for “GITR”, “1000×g),” for “1000× g),”

B2: Ly1630 (antibody, V domains shown)
VH: QVQLVQSGAEVKKPGASVKVSCKASGYTFAGFEMHWVRQAPGQGLEWMGAIDPKTGGTDYNQKFKDRVTMTRDTSISTAYMELSRLRSDDTAVYYCARDLGYFDVWGQGTLVTVSS
VL: DIQMTQSPSSLSASVGDRVTITCRASQDIRSNLNWYQQKPGGAVKLLIYYTSRLHSGVPSRFSGSGSGTDYTLTISSLQPEDFATYFCQQSEKLPRTFGGGTKVEIR
notes: Humanized anti-CD137 antibody; also called parent anti-CD137 antibody clone Ly1630; CD137 parental antibody Ly1630
EC50 (read off the curve) [2]: ~0.1 µg/mL
EC50 (read off the curve) [3]: ~0.1 µg/mL
EC50 (read off the curve) [4]: ~0.03 µg/mL
EC50 (read off the curve) [5]: ~0.03 µg/mL
EC50 (read off the curve) [6]: ~0.1 µg/mL
EC50 (read off the curve) [7]: ~0.09 µg/mL
binding result [8]: no binding (tested: 10 ug/ml)
EC50 (read off the curve) [9]: ~0.05 µg/mL
binding result [10]: no binding (tested: 10 ug/ml)

B4: Ly738 (bispecific antibody, human IgG1, kappa)
heavy: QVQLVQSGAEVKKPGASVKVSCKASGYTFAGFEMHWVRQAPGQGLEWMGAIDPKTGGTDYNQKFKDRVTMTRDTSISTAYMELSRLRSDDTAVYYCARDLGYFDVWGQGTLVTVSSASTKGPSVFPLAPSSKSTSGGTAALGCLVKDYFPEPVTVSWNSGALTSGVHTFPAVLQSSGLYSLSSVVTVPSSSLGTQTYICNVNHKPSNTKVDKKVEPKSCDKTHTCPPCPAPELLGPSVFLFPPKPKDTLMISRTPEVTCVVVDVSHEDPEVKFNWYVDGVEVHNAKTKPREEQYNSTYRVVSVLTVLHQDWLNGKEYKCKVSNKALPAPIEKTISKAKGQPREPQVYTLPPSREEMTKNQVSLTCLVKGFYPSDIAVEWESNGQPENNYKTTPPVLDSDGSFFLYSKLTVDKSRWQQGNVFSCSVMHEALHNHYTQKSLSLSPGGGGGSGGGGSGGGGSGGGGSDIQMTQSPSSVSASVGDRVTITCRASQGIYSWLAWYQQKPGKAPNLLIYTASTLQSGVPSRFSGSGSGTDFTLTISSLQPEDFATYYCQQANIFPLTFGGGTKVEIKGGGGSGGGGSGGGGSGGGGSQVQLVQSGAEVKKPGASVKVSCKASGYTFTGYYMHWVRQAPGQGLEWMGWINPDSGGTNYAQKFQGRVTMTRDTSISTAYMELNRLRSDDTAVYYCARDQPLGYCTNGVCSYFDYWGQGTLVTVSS
light: DIQMTQSPSSLSASVGDRVTITCRASQDIRSNLNWYQQKPGGAVKLLIYYTSRLHSGVPSRFSGSGSGTDYTLTISSLQPEDFATYFCQQSEKLPRTFGGGTKVEIRRTVAAPSVFIFPPSDEQLKSGTASVVCLLNNFYPREAKVQWKVDNALQSGNSQESVTEQDSKDSTYSLSSTLTLSKADYEKHKVYACEVTHQGLSSPVTKSFNRGEC
notes: Anti-CD40/CD137: Ly1630 heavy chain fused to Ly253 scFv (VL-VH); Ly1630 light chain
EC50 (read off the curve) [12]: ~0.08 µg/mL
EC50 (read off the curve) [4]: ~0.05 µg/mL

Further lines, results first:

binding result [1]: binds
B1: TM676 (antibody, human IgG1, kappa, V domains shown)
VH: QVQLQESGPGLVKPSETLSLTCTVSGFSLTSYNVHWIRQPPGKGLEWIGVIWSGVRTDYNSVLKSRVTISVDTSKNQFSLKLSSVTAADTAVYYCARGTYDANYHDVMDAWGQGTMVTVSS
VL: EIVLTQSPATLSLSPGERATLSCRASKSVRTGMHWYQQKPGQAPRLLIYGASNLESGIPARFSGSGSGTDFTLTISSLEPEDFAVYYCHQSWNHFTFGQGTKLEIKR
notes: Humanized anti-GITR antibody; also called humanized LYV392 antibody (VH-1/IgG1 mut, VL-1/kappa)

binding result [10]: binds
binding result [11]: no binding (tested: 10 ug/ml)
B3: Ly076 (antibody, V domains shown)
VH: QVQLVQSGAEVKKPGASVKVSCKASGYTFTDFWMSWVRQAPGQGLEWMGQIYPNTGTTHSNEKFKGRVTMTRDTSTSTVYMELSSLRSEDTAVYYCARSYHISTTPNWFAYWGQGTLVTVSS
VL: DIQMTQSPSSLSASVGDRVTITCKASQNVYKKLEWYQQKPGKVPKVLIYHTNILQTGVPSRFSGSGSGTDYTLTISSLQPEDVATYYCYQWNSGPTFGGGTKVEIK
notes: Humanized anti-PD-L1 parent; also called anti-PD-L1 antibody Ly076

binding result [12]: binds
EC50 (read off the curve) [4]: ~0.05 µg/mL
B5: Ly739 (bispecific antibody, human IgG1, kappa)
heavy: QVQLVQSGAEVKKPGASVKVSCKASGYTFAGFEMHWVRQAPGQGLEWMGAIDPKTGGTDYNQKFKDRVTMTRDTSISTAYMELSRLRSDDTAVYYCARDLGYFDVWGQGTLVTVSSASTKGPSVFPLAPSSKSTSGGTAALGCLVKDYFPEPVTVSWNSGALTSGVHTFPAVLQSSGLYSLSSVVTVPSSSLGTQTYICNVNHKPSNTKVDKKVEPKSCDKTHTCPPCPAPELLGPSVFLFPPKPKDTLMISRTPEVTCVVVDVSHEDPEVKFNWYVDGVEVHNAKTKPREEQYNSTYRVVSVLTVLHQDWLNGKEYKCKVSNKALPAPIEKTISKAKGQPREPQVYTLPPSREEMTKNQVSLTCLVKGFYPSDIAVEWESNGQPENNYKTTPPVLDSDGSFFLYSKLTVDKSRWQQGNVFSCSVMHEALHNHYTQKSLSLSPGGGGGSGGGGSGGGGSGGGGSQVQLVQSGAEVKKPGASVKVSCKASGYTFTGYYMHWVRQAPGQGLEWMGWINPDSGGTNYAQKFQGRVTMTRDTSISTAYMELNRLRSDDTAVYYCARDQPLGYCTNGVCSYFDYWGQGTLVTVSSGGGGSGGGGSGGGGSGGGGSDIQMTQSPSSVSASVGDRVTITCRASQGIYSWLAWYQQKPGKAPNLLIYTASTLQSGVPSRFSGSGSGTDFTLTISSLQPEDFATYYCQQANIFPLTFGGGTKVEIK
light: B4 light
notes: Anti-CD40/CD137: Ly1630 heavy chain fused to Ly253 scFv (VH-VL); Ly1630 light chain
